From article PMC5612953, “Stable MOB1 interaction with Hippo/MST is not essential for development and tissue growth control” (Nature Communications, 2017)
Where a chain is given by its changes, count along the chain named. Names and notes keep the numbering of the source.

B1: human NDR2 (residues 25-88), N-terminal regulatory domain (NTR) (domain or fragment, UniProt Q9Y2H1 25-88, looked up)
chain: KLTLENFYSNLILQHEERETRQKKLEVAMEEEGLADEEKKLRRSQHARKETEFLRLKRTRLGLD
notes: human NDR2, residues 25-88 (NTR); also called NDR2 (25-88); NTR of NDR2; source: E. coli BL21(DE3), purified (Ni-NTA)
B2: human LATS1 (residues 618-697) (domain or fragment, UniProt O95835 618-697, looked up)
chain: RKNKKDEERRESRIQSYSPQAFKFFMEQHVENVLKSHQQRLHRKKQLENEMMRVGLSQDAQDQMRKMLCQKESNYIRLKR
notes: human LATS1, residues 618-697; also called LATS1 (618-697); source: E. coli BL21(DE3), purified (Ni-NTA)
B3: recombinant full-length MOB1A(D63V) (natural protein, human, UniProt Q9H8S9 1-216, looked up)
chain: MSFLFSSRSSKTFKPKKNIPEGSHQYELLKHAEATLGSGNLRQAVMLPEGEDLNEWIAVNTVVFFNQINMLYGTITEFCTEASCPVMSAGPRYEYHWADGTNIKKPIKCSAPKYIDYLMTWVQDQLDDETLFPSKIGVPFPKNFMSVAKTILKRLFRVYAHIYHQHFDSVMQLQEEAHLNTSFKHFIFFVQEFNLIDRRELAPLQELIEKLGSKDR
notes: human MOB1A, full length; also called MOB1(D63V); source: E. coli, purified as MOB1A (33-216) (Ni-NTA)

Legend:
[1] = target: T1, human MOB1A (residues 33-216) (human, UniProt Q9H8S9 33-216); experiment: crystal structure; MOB1A (33-216) and NDR2 (25-88) incubated 1:1 at 4 °C, complex purified on Superdex 200; crystals at 14 °C in 17% PEG 3350, 0.1 M HEPES pH 7.5, 150 mM magnesium chloride; 2.10 Å; conditions: both partners purified
T1 construct: human MOB1A, residues 33-216; modified pET28a vector; a zinc is associated with MOB1 in the structure; also called MOB1 (33-216); MOB1A (33-216); source: E. coli BL21(DE3), purified (Ni-NTA; complex by Superdex 200)
T1 sequence (looked up): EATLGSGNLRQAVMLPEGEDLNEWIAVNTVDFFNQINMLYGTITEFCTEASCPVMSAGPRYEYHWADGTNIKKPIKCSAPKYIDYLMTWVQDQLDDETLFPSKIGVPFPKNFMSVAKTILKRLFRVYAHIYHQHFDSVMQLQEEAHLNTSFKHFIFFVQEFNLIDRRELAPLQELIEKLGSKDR

[2] = target: T2, unphosphorylated full-length MOB1A(K104E/K105E), recombinant (human, UniProt Q9H8S9 1-216, K104E | K105E); experiment: ITC; 25 °C, ITC200; 25 mM HEPES pH 7.5, 200 mM NaCl, 1 mM EDTA; ~240 μM MOB1A injected (20 x 2 μl) into ~24 μM NDR1, NDR2, LATS1 or LATS2 fragment in the cell; single-site model; conditions: both partners purified
T2 construct: human MOB1A, full length; also called Unphosphorylated MOB1(K104E/K105E); MOB1(K104E/K104E); source: E. coli, purified as MOB1A (33-216) (Ni-NTA)
T2 sequence (looked up): B3 chain with V63D, K104E, K105E

[3] = target: T3, phospho-MOB1(K104E/K105E), full length, recombinant (human, UniProt Q9H8S9 1-216, K104E | K105E, phosphorylated in vitro by MST2 (residues 2-308); the paper names Thr12 and Thr35 as the MST1/2 phosphorylation sites of MOB1); experiment: as above; conditions: both partners purified
T3 construct: human MOB1A, full length; source: E. coli, purified (Ni-NTA), then phosphorylated in vitro by MST2 (2-308)
T3 sequence (looked up): B3 chain with V63D, K104E, K105E

[4] = target: T4, non-phosphorylated full-length MOB1A wild-type (human, UniProt Q9H8S9 1-216); experiment: as above; conditions: both partners purified
T4 construct: human MOB1A, full length; pET28a vector; also called unphosphorylated full-length MOB1; non-phosphorylated MOB1; source: E. coli, purified as MOB1A (33-216) (Ni-NTA)
T4 sequence (looked up): B3 chain with V63D

[5] = target: B3; experiment: SEC; purified full-length MOB1 proteins incubated with NDR2 (25-88), LATS1 (618-697) or MST2 (2-392) at 4 °C for 20 min in assembly buffer (20 mM Tris pH 8.0, 200 mM NaCl, 5 mM DTT); HiLoad 16/60 Superdex 200; fractions by SDS-PAGE and Coomassie; for LATS1 MOB1A was first phosphorylated by MST2 (2-308); conditions: both partners purified
[6] = target: T5, phospho-MOB1(K104E/K105E), full length, recombinant (human, UniProt Q9H8S9 1-216, K104E | K105E, phosphorylated in vitro by MST2 (residues 2-308); the paper names Thr12 and Thr35 as the MST1/2 phosphorylation sites of MOB1); experiment: ITC; phosphorylated MOB1
T5 sequence: B3 chain with V63D, K104E, K105E

[7] = target: T6, unphosphorylated full-length MOB1A(K104E/K105E), recombinant (human, UniProt Q9H8S9 1-216, K104E | K105E); experiment: ITC
T6 sequence: B3 chain with V63D, K104E, K105E

[8] = target: T3, phospho-MOB1(K104E/K105E), full length, …; experiment: SEC; purified full-length MOB1 proteins incubated with NDR2 (25-88), LATS1 (618-697) or MST2 (2-392) at 4 °C for 20 min in assembly buffer (20 mM Tris pH 8.0, 200 mM NaCl, 5 mM DTT); HiLoad 16/60 Superdex 200; fractions by SDS-PAGE and Coomassie; for LATS1 MOB1A was first phosphorylated by MST2 (2-308); conditions: both partners purified
[9] = target: T7, human MST2 (residues 2-392) (human, UniProt Q13188 2-392); experiment: as above; conditions: both partners purified
T7 construct: human MST2, residues 2-392; also called MST2 (2-392); source: E. coli BL21(DE3), purified (Ni-NTA)
T7 sequence (looked up): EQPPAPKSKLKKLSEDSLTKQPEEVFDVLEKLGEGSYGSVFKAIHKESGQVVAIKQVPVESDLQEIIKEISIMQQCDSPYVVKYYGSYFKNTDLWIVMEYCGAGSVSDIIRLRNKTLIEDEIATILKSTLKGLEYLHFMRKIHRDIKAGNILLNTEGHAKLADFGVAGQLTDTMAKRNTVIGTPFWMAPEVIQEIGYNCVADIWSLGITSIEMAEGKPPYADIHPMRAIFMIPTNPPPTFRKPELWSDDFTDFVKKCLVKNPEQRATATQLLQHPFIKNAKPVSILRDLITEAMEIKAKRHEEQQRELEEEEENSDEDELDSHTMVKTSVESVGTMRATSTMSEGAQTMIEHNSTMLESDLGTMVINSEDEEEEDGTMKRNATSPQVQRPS

## B1
[1]
  binding result: binds
[2]
  binding result: binds
[3]
  binding result: binds
[4]
  binding result: binds
[5]
  binding result: binds
[6]
  Kd: 0.532 µM
[7]
  Kd: 16.9 µM

## B2
[8]
  binding result: binds

## B3
[9]
  binding result: binds
